The values that follow are results of earlier work, collected in publication PMC3078936.

The term Kd denotes the equilibrium constant for the complex coming apart.

In this data set the target is Bmf (Homo sapiens). The settings on record: cited from earlier work.

Sequence of DYNLL1 (P63167 whole entry): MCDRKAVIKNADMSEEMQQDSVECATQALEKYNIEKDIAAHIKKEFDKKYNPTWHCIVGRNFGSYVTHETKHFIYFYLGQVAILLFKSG

In the case of DYNLL1 (from UniProt P63167), the Kd was 750 nM.
